According to paper PMC11385703:

Legend:
[1] = target: Myotoxin II, biotinylated (Bothrops asper) (UniProt P24605); test: BLI; […]) biosensors; […]; dissociation for 600 s in HEPES-MES pH 3.5; 25°C; 1:1 binding model, […]
[2] = target: Myotoxin II, biotinylated (Bothrops asper) (UniProt P24605); test: BLI; […]) biosensors; […]; dissociation for 600 s in HEPES-MES pH 4.0; 25°C; 1:1 binding model, […]
[3] = target: Myotoxin II, biotinylated (Bothrops asper) (UniProt P24605); test: BLI; […]) biosensors; […]; dissociation for 600 s in HEPES-MES pH 4.5; 25°C; 1:1 binding model, […]
[4] = target: Myotoxin II, biotinylated (Bothrops asper) (UniProt P24605); test: BLI; […]) biosensors; […]; dissociation for 600 s in HEPES-MES pH 5.0; 25°C; 1:1 binding model, […]
[5] = target: Myotoxin II, biotinylated (Bothrops asper) (UniProt P24605); test: BLI; […]) biosensors; […]; dissociation for 600 s in HEPES-MES pH 6.0; 25°C; 1:1 binding model, […]
[6] = target: Myotoxin II, biotinylated (Bothrops asper) (UniProt P24605); test: BLI; […]) biosensors; […]; association in HEPES-MES pH 7.4 for 300 s, dissociation in HEPES-MES pH 7.4 for 600 s; 1:1 binding model, […]
[7] = target: Myotoxin II, biotinylated (Bothrops asper) (UniProt P24605); test: BLI; […]) biosensors; […]; dissociation for 600 s in HEPES-MES pH 6.5; 25°C; 1:1 binding model, […]
[8] = target: Myotoxin II, biotinylated (Bothrops asper) (UniProt P24605); test: BLI; […]) biosensors; […]; association in HEPES-MES pH 7.4 for 300 s, dissociation in HEPES-MES pH 5.5 for 600 s; 1:1 binding model, […]
[9] = target: Myotoxin II, biotinylated (Bothrops asper) (UniProt P24605); test: BLI; […]) biosensors; […]; dissociation for 600 s in HEPES-MES pH 5.5; 25°C; 1:1 binding model, […]

Chain of Myotoxin II, biotinylated (Bothrops asper) (P24605 17-137): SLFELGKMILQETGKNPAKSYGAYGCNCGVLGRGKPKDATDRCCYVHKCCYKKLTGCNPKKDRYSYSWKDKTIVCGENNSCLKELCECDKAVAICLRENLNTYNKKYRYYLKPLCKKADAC

B1: TPL0039_05_A03 Fab (Fab, V domains shown)
VH: QVQLVESGGGLAKPGRSLRLSCAVSGFTFSSYGMHWVRQAPGKGLEWVAVISYDGSNKYYADSVKGRFTISRDNSKNTLYLQMNSLRAEDTAVYYCASTLQQLDAFDIWGQGTMVTVSS
VL: NFMLTQPHSVSESPGKTITISCTRSSGSIASNYVQWYQQRPGSVPTPVIYEDDRRPSGVPDRFSGSIDSSSNSASLTISGLKTEDEADYYCQSYDSSSVVFGGGTKITVL
B1 was tested, and the koff [1] was 0.059 s⁻¹, the koff [2] was 0.01 s⁻¹ and the koff [3] was 0.0038 s⁻¹. For the same binder, the koff [4] was 0.0016 s⁻¹, the koff [5] was 0.00069 s⁻¹ and the Kd [6] was 1.5 nM. It also gave a koff [6] of 0.00031 s⁻¹, a kon [6] of 200000 M⁻¹ s⁻¹ and a koff [7] of 0.00058 s⁻¹. It also gave a Kd [8] of 6.04 nM, a koff [8] of 0.0011 s⁻¹ and a kon [8] of 180000 M⁻¹ s⁻¹. It also gave a koff [9] of 0.0012 s⁻¹.
